# Starred links: 1 amine or outer side, 2 acyl side, 3 side chain; linkers in the order of their positions; H or OH if unused. Positions of bridges follow the written chain, without caps; N, C: chain ends. Non-standard residues stand in square brackets, D forms with d. Primed or numbered codes have the meaning given here. PyrS2″ = (S)-3-amino-1-((pent-4-en-1-yloxy)carbonyl)pyrrolidine-3-carboxylic acid (stapling residue), C=CCCCOC(=O)N1CC[C@@](N[*:1])(C(=O)[*:2])C1; B5(18) = 2,2-bis(4-pentenyl)glycine (2-amino-2-(pent-4-en-1-yl)hept-6-enoic acid), stitching residue, C=CCCCC(CCCC=C)(N[*:1])C(=O)[*:2]; TfeGA = (S)-2-amino-3-((carboxymethyl)(2,2,2-trifluoroethyl)amino)propanoic acid, O=C([C@H](CN(CC(=O)[*:3])CC(F)(F)F)N[*:1])[*:2]; B5(3) = 2,2-bis(4-pentenyl)glycine (stitching residue), C=CCCCC(CCCC=C)(N[*:1])C(=O)[*:2]; Phe(3-COOH) = N[C@@H](Cc1cccc(C(=O)O)c1)C(=O)O; 2F3MeF = Cc1cccc(C[C@H](N[*:1])C(=O)[*:2])c1F; Phe(2-CF3) = N[C@@H](Cc1ccccc1C(F)(F)F)C(=O)O; Phe(2-Cl) = N[C@@H](Cc1ccccc1Cl)C(=O)O; Bta = N[C@@H](Cc1csc2ccccc12)C(=O)O; αAllylPro = C=CC[C@@]1(C(=O)O)CCCN1; tBuAla = CC(C)(C)C[C@H](N)C(=O)O; 3Thi = N[C@@H](Cc1ccsc1)C(=O)O; S8 = C=CCCCCCC[C@](C)(N)C(=O)O; hSer = N[C@@H](CCO)C(=O)O; 2F3MeF(3) = Phe analogue; Abu = CC[C@H](N)C(=O)O; Aib = CC(C)(N)C(=O)O
# T1: B-cat-Halo (beta-catenin HaloTag NanoBRET construct expressed in HEK293 cells) (UniProt P35222 1-781)
# T1 sequence (looked up): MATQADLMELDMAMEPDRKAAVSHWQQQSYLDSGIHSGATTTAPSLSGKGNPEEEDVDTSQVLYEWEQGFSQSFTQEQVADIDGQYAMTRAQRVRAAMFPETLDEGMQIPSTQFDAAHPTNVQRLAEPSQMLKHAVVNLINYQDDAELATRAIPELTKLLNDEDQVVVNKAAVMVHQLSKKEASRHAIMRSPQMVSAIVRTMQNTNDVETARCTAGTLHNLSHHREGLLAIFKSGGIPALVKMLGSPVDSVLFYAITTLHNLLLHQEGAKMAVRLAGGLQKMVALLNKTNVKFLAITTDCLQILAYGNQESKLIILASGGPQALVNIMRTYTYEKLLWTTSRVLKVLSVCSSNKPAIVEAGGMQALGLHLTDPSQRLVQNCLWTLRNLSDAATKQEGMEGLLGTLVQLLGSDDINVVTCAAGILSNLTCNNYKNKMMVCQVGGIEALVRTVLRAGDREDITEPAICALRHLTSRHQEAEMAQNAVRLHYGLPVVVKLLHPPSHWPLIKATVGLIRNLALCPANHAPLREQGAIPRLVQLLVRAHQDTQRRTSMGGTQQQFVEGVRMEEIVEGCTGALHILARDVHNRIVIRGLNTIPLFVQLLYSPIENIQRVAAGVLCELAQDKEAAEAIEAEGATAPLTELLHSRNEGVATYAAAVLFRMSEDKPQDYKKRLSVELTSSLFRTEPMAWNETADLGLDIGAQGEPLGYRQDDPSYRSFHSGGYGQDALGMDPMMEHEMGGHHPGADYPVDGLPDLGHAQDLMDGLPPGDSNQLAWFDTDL
# T2: beta-catenin in DLD1 TCF/LEF luciferase reporter cells (UniProt P35222 1-781)
# T2 sequence (looked up): T1 sequence (looked up)
# T3: Bcat-Halo (UniProt P35222 1-781)
# T3 sequence (looked up): T1 sequence (looked up)
# Tests used:
# Assay in all cases: cell-based or functional assay
# [1] = target: T1, B-cat-Halo (beta-catenin HaloTag …)
# [2] = target: T2, beta-catenin in DLD1 TCF/LEF luciferase …
# Bcat-Halo = target: T3, Bcat-Halo
NanoBRET Abs IC50 [1] [µM],DLD1 reporter assay Abs IC50 [2] [µM],Binder,further results
6.5,–,"Ac-[αAllylPro]D[tBuAla][B5(3)]D[Phe(3-COOH)]QAFL[PyrS2″][Phe(2-CF3)][RbMe2NapA]A-NH2 (staple 1-4, 4-11) [Ac-PL3-Asp-Npg-B5-Asp-3COOHF-Gln-Ala-Phe-Leu-PyrS2-2F3MeF-RbMe2NapA-Ala-NH2]",–
–,> 20,"Ac-[αAllylPro]D[tBuAla][B5(18)]D[TfeGA]ASFN[PyrS2″][Phe(2-Cl)][Bta]Q-NH2 (staple 1-4, 4-11) [I-1004]",–
–,> 20,"Ac-[αAllylPro]D[tBuAla][B5(18)]D[TfeGA]ALFN[PyrS2″][Phe(2-Cl)][Bta]Q-NH2 (staple 1-4, 4-11) [I-1002]",–
–,–,"Ac-[αAllylPro]D[tBuAla][B5(3)]N[Phe(3-COOH)]AAFN[PyrS2″][3Thi][Bta]Q-NH2 (staple 1-4, 4-11) [I-2335]",NanoBRET Abs IC50 (Bcat-Halo): 37 µM
1.8,–,"Ac-[αAllylPro]D[tBuAla][B5(3)]D[Phe(3-COOH)]AAF[Abu][PyrS2″][2F3MeF][Bta][(NHEt)GlnR]A-NH2 (staple 1-4, 4-11) [Ac-PL3-Asp-Npg-B5-Asp-3COOHF-Ala-Ala-Phe-Abu-PyrS2-2F3MeF-BztA-[NHEt]GlnR-Ala-NH2]",–
> 20,–,"Ac-[αAllylPro]D[tBuAla][B5(3)]NT[Aib]AFN[PyrS2″][3Thi][Bta]Y-NH2 (staple 1-4, 4-11) [Ac-PL3-Asp-Npg-B5-Asn-Thr-Aib-Ala-Phe-Asn-PyrS2-3Thi-BztA-Tyr-NH2]",–
–,> 20,"Ac-[αAllylPro]D[tBuAla][B5(3)][3Thi][TfeGA]AAFN[PyrS2″]D[Bta]Q-NH2 (staple 1-4, 4-11) [I-1001]",–
> 20,–,"Ac-[αAllylPro]D[tBuAla][B5(3)]D[Phe(3-COOH)]QAFL[PyrS2″][2F3MeF(3)][SbMe2NapA]A-NH2 (staple 1-4, 4-11) [Ac-PL3-Asp-Npg-B5-Asp-3COOHF-Gln-Ala-Phe-Leu-PyrS2-2F3MeF-SbMe2NapA-Ala-NH2]",–
> 20,–,"Ac-[αAllylPro]D[tBuAla][B5(3)]D[Phe(3-COOH)]AAFL[PyrS2″][Phe(2-CF3)][2F3MeW]Q-NH2 (staple 1-4, 4-11) [Ac-PL3-Asp-Npg-B5-Asp-3COOHF-Ala-Ala-Phe-Leu-PyrS2-2F3MeF-2F3MeW-Gln-NH2]",–
16.5,–,"Ac-[αAllylPro]D[tBuAla][B5(3)]D[Phe(3-COOH)]AAFL[PyrS2″][Phe(2-CF3)][SbMe2NapA]Q-NH2 (staple 1-4, 4-11) [Ac-PL3-Asp-Npg-B5-Asp-3COOHF-Ala-Ala-Phe-Leu-PyrS2-2F3MeF-SbMe2NapA-Gln-NH2]",–
> 20,–,"Ac-[αAllylPro]D[tBuAla][B5(3)]D[Phe(3-COOH)]QAFL[PyrS2″][Phe(2-CF3)][2F3MeW]A-NH2 (staple 1-4, 4-11) [Ac-PL3-Asp-Npg-B5-Asp-3COOHF-Gln-Ala-Phe-Leu-PyrS2-2F3MeF-2F3MeW-Ala-NH2]",–
–,8,"Ac-[αAllylPro]D[tBuAla][B5(3)]D[TfeGA]AAF[hSer][S8][Phe(2-Cl)][Bta][hSer]-NH2 (staple 1-4, 4-11) [I-1000]",–
2.1,–,"Ac-[αAllylPro]D[tBuAla][B5(3)]D[TfeGA]AAFL[PyrS2″][3Thi][Bta][(NHEt)GlnR]A-NH2 (staple 1-4, 4-11) [Ac-PL3-Asp-Npg-B5-Asp-TfeGA-Ala-Ala-Phe-Leu-PyrS2-3Thi-BztA-[NHEt]GlnR-Ala-NH2]",–
–,11.1,"Ac-[αAllylPro]D[tBuAla][B5(3)]D[TfeGA]AAFS[S8][Phe(2-Cl)][Bta][hSer]-NH2 (staple 1-4, 4-11; also: later eluting isomer) [I-999]",–
> 20,–,"Ac-[αAllylPro]D[tBuAla][B5(3)]NT[Aib]AFN[PyrS2″][3Thi][Bta]K-NH2 (staple 1-4, 4-11) [Ac-PL3-Asp-Npg-B5-Asn-Thr-Aib-Ala-Phe-Asn-PyrS2-3Thi-BztA-Lys-NH2]",–

# Reference: US20240116985A1 (published 2024)
